Data published in paper PMC4686814 (Nature communications, 2015).
Several values for one entry are separate records, joined by “and”; a condition that tells them apart may be missing. Equal entries are not always repeated.

T1: hVPS4B E235Q (catalytic mutant of human VPS4B) (human), O75351
T1 chain: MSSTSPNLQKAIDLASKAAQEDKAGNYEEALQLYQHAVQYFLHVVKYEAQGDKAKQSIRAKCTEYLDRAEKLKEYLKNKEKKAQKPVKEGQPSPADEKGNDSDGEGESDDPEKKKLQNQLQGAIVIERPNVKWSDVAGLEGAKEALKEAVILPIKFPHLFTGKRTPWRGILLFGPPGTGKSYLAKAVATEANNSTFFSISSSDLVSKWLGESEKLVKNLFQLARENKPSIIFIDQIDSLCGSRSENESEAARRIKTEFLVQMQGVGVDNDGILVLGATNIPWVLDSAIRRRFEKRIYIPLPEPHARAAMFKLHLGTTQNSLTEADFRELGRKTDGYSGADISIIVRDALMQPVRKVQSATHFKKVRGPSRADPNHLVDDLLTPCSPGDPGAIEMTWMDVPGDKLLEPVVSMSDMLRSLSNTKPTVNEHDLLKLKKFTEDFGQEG


Assays:
[1] = biological target: the molecule itself; test: SEC; Superose 6; MsVps4ΔMIT at 200 µM (Fig. 1b) and at a series of concentrations up to 0.5 mM (Supplementary Fig. 2); no nucleotide
hVPS4B Phe160Ala (human) = hVPS4B Phe160Ala (human) (UniProt O75351)
[2] = biological target: T1, hVPS4B E235Q (catalytic mutant of human …); test: SEC; Superose 6; hVPS4B E235Q and mutants of it at 100 µM with 1 mM ATP and 5 mM MgCl2; settings: remark: other sources report otherwise
hVPS4B Met350Ala (human) = hVPS4B Met350Ala (human) (UniProt O75351)
[3] = biological target: the molecule itself; test: SEC-SAXS; online SEC (Superose 6 10/300 GL) in 50 mM Tris pH 8.8, 50 mM NaCl; 500 µl at 220 µM injected; BM29 at the ESRF
[4] = biological target: the molecule itself; test: SEC; Superose 6; N-terminally His-tagged full length MsVps4 and mutants at 70 µM, a concentration that induces dodecamer formation; no nucleotide
[5] = biological target: the molecule itself; test: as above; remark: listed apart in the source

Binder | stoichiometry N [4] | stoichiometry N [5] | other results
MsVps4ΔMIT (residues 75 to 369) (domain or fragment, Metallosphera sedula, UniProt A4YHC5 75-369, looked up) VPEGGEETEKAEEDIVMKEKPKVTLNEIVGLEDVKEALKEAVVYPSKRPDLFPLGWPRGILLYGPPGCGKTMIAAAVANELDSEFIHVDAASIMSKWLGEAEKNVAKIFKTARELSKKENKPAIIFIDELDALLASYTSEVGGEARVRNQFLKEMDGLADKNEISKVYVIGATNKPWRLDEPFLRRFQKRIYITLPDKAHRLELLKHYSSKVKLDPNVNLEELAELTDGYTASDIRDIVQSAHMRVVKEMFEKNLQEPRAINMDDFREVLKVRKPSVNQDMLKAYAAWHEKFKAL |  |  | stoichiometry N [1]: 6
hVPS4B Phe160Ala (enzyme) MSSTSPNLQKAIDLASKAAQEDKAGNYEEALQLYQHAVQYFLHVVKYEAQGDKAKQSIRAKCTEYLDRAEKLKEYLKNKEKKAQKPVKEGQPSPADEKGNDSDGEGESDDPEKKKLQNQLQGAIVIERPNVKWSDVAGLEGAKEALKEAVILPIKFPHLATGKRTPWRGILLFGPPGTGKSYLAKAVATEANNSTFFSISSSDLVSKWLGESEKLVKNLFQLARENKPSIIFIDEIDSLCGSRSENESEAARRIKTEFLVQMQGVGVDNDGILVLGATNIPWVLDSAIRRRFEKRIYIPLPEPHARAAMFKLHLGTTQNSLTEADFRELGRKTDGYSGADISIIVRDALMQPVRKVQSATHFKKVRGPSRADPNHLVDDLLTPCSPGDPGAIEMTWMDVPGDKLLEPVVSMSDMLRSLSNTKPTVNEHDLLKLKKFTEDFGQEG |  |  | ATPase activity at 37°C with ATP/Mg, percent of wild-type hVPS4B (hVPS4B Phe160Ala (human)): 0%
hVPS4B E235Q (catalytic mutant of human VPS4B), O75351 1-444 (enzyme) MSSTSPNLQKAIDLASKAAQEDKAGNYEEALQLYQHAVQYFLHVVKYEAQGDKAKQSIRAKCTEYLDRAEKLKEYLKNKEKKAQKPVKEGQPSPADEKGNDSDGEGESDDPEKKKLQNQLQGAIVIERPNVKWSDVAGLEGAKEALKEAVILPIKFPHLFTGKRTPWRGILLFGPPGTGKSYLAKAVATEANNSTFFSISSSDLVSKWLGESEKLVKNLFQLARENKPSIIFIDQIDSLCGSRSENESEAARRIKTEFLVQMQGVGVDNDGILVLGATNIPWVLDSAIRRRFEKRIYIPLPEPHARAAMFKLHLGTTQNSLTEADFRELGRKTDGYSGADISIIVRDALMQPVRKVQSATHFKKVRGPSRADPNHLVDDLLTPCSPGDPGAIEMTWMDVPGDKLLEPVVSMSDMLRSLSNTKPTVNEHDLLKLKKFTEDFGQEG |  |  | stoichiometry N [2]: 6
hVPS4B Met350Ala (enzyme) MSSTSPNLQKAIDLASKAAQEDKAGNYEEALQLYQHAVQYFLHVVKYEAQGDKAKQSIRAKCTEYLDRAEKLKEYLKNKEKKAQKPVKEGQPSPADEKGNDSDGEGESDDPEKKKLQNQLQGAIVIERPNVKWSDVAGLEGAKEALKEAVILPIKFPHLFTGKRTPWRGILLFGPPGTGKSYLAKAVATEANNSTFFSISSSDLVSKWLGESEKLVKNLFQLARENKPSIIFIDEIDSLCGSRSENESEAARRIKTEFLVQMQGVGVDNDGILVLGATNIPWVLDSAIRRRFEKRIYIPLPEPHARAAMFKLHLGTTQNSLTEADFRELGRKTDGYSGADISIIVRDALAQPVRKVQSATHFKKVRGPSRADPNHLVDDLLTPCSPGDPGAIEMTWMDVPGDKLLEPVVSMSDMLRSLSNTKPTVNEHDLLKLKKFTEDFGQEG |  |  | ATPase activity at 37°C with ATP/Mg, percent of wild-type hVPS4B (hVPS4B Met350Ala (human)): 0%
MsVPS4 M318A, full length, His tag cleaved (enzyme, Metallosphera sedula, UniProt A4YHC5 1-369, looked up) MSAQVMLEEMARKYAIAAVRADKEGRREDAINNYKKAIEVLTQIVTLYPDMVARNAYEQMINEYKKRLETLNQMVPEGGEETEKAEEDIVMKEKPKVTLNEIVGLEDVKEALKEAVVYPSKRPDLFPLGWPRGILLYGPPGCGKTMIAAAVANELDSEFIHVDAASIMSKWLGEAEKNVAKIFKTARELSKKENKPAIIFIDELDALLASYTSEVGGEARVRNQFLKEMDGLADKNEISKVYVIGATNKPWRLDEPFLRRFQKRIYITLPDKAHRLELLKHYSSKVKLDPNVNLEELAELTDGYTASDIRDIVQSAHARVVKEMFEKNLQEPRAINMDDFREVLKVRKPSVNQDMLKAYAAWHEKFKAL |  |  | stoichiometry N [3]: 6
MsVps4 Met318Ala, full length, N-terminally His-tagged (enzyme, Metallosphera sedula, UniProt A4YHC5 1-369, looked up) MSAQVMLEEMARKYAIAAVRADKEGRREDAINNYKKAIEVLTQIVTLYPDMVARNAYEQMINEYKKRLETLNQMVPEGGEETEKAEEDIVMKEKPKVTLNEIVGLEDVKEALKEAVVYPSKRPDLFPLGWPRGILLYGPPGCGKTMIAAAVANELDSEFIHVDAASIMSKWLGEAEKNVAKIFKTARELSKKENKPAIIFIDELDALLASYTSEVGGEARVRNQFLKEMDGLADKNEISKVYVIGATNKPWRLDEPFLRRFQKRIYITLPDKAHRLELLKHYSSKVKLDPNVNLEELAELTDGYTASDIRDIVQSAHARVVKEMFEKNLQEPRAINMDDFREVLKVRKPSVNQDMLKAYAAWHEKFKAL | 2 | 6 | 
MsVps4 Arg259Ala Arg260Ala, full length, N-terminally His-tagged (enzyme, Metallosphera sedula, UniProt A4YHC5 1-369, looked up) MSAQVMLEEMARKYAIAAVRADKEGRREDAINNYKKAIEVLTQIVTLYPDMVARNAYEQMINEYKKRLETLNQMVPEGGEETEKAEEDIVMKEKPKVTLNEIVGLEDVKEALKEAVVYPSKRPDLFPLGWPRGILLYGPPGCGKTMIAAAVANELDSEFIHVDAASIMSKWLGEAEKNVAKIFKTARELSKKENKPAIIFIDELDALLASYTSEVGGEARVRNQFLKEMDGLADKNEISKVYVIGATNKPWRLDEPFLAAFQKRIYITLPDKAHRLELLKHYSSKVKLDPNVNLEELAELTDGYTASDIRDIVQSAHMRVVKEMFEKNLQEPRAINMDDFREVLKVRKPSVNQDMLKAYAAWHEKFKAL | 2 | 6 | 
MsVps4 Ile89Glu, full length, N-terminally His-tagged (enzyme, Metallosphera sedula, UniProt A4YHC5 1-369, looked up) MSAQVMLEEMARKYAIAAVRADKEGRREDAINNYKKAIEVLTQIVTLYPDMVARNAYEQMINEYKKRLETLNQMVPEGGEETEKAEEDEVMKEKPKVTLNEIVGLEDVKEALKEAVVYPSKRPDLFPLGWPRGILLYGPPGCGKTMIAAAVANELDSEFIHVDAASIMSKWLGEAEKNVAKIFKTARELSKKENKPAIIFIDELDALLASYTSEVGGEARVRNQFLKEMDGLADKNEISKVYVIGATNKPWRLDEPFLRRFQKRIYITLPDKAHRLELLKHYSSKVKLDPNVNLEELAELTDGYTASDIRDIVQSAHMRVVKEMFEKNLQEPRAINMDDFREVLKVRKPSVNQDMLKAYAAWHEKFKAL | 6 | 12 | 
MsVps4 Glu174Ala Glu176Ala, full length, N-terminally His-tagged (enzyme, Metallosphera sedula, UniProt A4YHC5 1-369, looked up) MSAQVMLEEMARKYAIAAVRADKEGRREDAINNYKKAIEVLTQIVTLYPDMVARNAYEQMINEYKKRLETLNQMVPEGGEETEKAEEDIVMKEKPKVTLNEIVGLEDVKEALKEAVVYPSKRPDLFPLGWPRGILLYGPPGCGKTMIAAAVANELDSEFIHVDAASIMSKWLGAAAKNVAKIFKTARELSKKENKPAIIFIDELDALLASYTSEVGGEARVRNQFLKEMDGLADKNEISKVYVIGATNKPWRLDEPFLRRFQKRIYITLPDKAHRLELLKHYSSKVKLDPNVNLEELAELTDGYTASDIRDIVQSAHMRVVKEMFEKNLQEPRAINMDDFREVLKVRKPSVNQDMLKAYAAWHEKFKAL | 6 and 2 | 12 | 
MsVps4 Ser169Ala, full length, N-terminally His-tagged (enzyme, Metallosphera sedula, UniProt A4YHC5 1-369, looked up) MSAQVMLEEMARKYAIAAVRADKEGRREDAINNYKKAIEVLTQIVTLYPDMVARNAYEQMINEYKKRLETLNQMVPEGGEETEKAEEDIVMKEKPKVTLNEIVGLEDVKEALKEAVVYPSKRPDLFPLGWPRGILLYGPPGCGKTMIAAAVANELDSEFIHVDAASIMAKWLGEAEKNVAKIFKTARELSKKENKPAIIFIDELDALLASYTSEVGGEARVRNQFLKEMDGLADKNEISKVYVIGATNKPWRLDEPFLRRFQKRIYITLPDKAHRLELLKHYSSKVKLDPNVNLEELAELTDGYTASDIRDIVQSAHMRVVKEMFEKNLQEPRAINMDDFREVLKVRKPSVNQDMLKAYAAWHEKFKAL | 6 | 12 | 
MsVps4 Glu214Tyr, full length, N-terminally His-tagged (enzyme, Metallosphera sedula, UniProt A4YHC5 1-369, looked up) MSAQVMLEEMARKYAIAAVRADKEGRREDAINNYKKAIEVLTQIVTLYPDMVARNAYEQMINEYKKRLETLNQMVPEGGEETEKAEEDIVMKEKPKVTLNEIVGLEDVKEALKEAVVYPSKRPDLFPLGWPRGILLYGPPGCGKTMIAAAVANELDSEFIHVDAASIMSKWLGEAEKNVAKIFKTARELSKKENKPAIIFIDELDALLASYTSYVGGEARVRNQFLKEMDGLADKNEISKVYVIGATNKPWRLDEPFLRRFQKRIYITLPDKAHRLELLKHYSSKVKLDPNVNLEELAELTDGYTASDIRDIVQSAHMRVVKEMFEKNLQEPRAINMDDFREVLKVRKPSVNQDMLKAYAAWHEKFKAL | 6 and 2 | 12 | 
MsVps4 wild type, full length, N-terminally His-tagged (enzyme, Metallosphera sedula, UniProt A4YHC5 1-369, looked up) MSAQVMLEEMARKYAIAAVRADKEGRREDAINNYKKAIEVLTQIVTLYPDMVARNAYEQMINEYKKRLETLNQMVPEGGEETEKAEEDIVMKEKPKVTLNEIVGLEDVKEALKEAVVYPSKRPDLFPLGWPRGILLYGPPGCGKTMIAAAVANELDSEFIHVDAASIMSKWLGEAEKNVAKIFKTARELSKKENKPAIIFIDELDALLASYTSEVGGEARVRNQFLKEMDGLADKNEISKVYVIGATNKPWRLDEPFLRRFQKRIYITLPDKAHRLELLKHYSSKVKLDPNVNLEELAELTDGYTASDIRDIVQSAHMRVVKEMFEKNLQEPRAINMDDFREVLKVRKPSVNQDMLKAYAAWHEKFKAL | 6 and 2 | 12 | 
